First the molecules themselves.
B5: phosphorylated SNAP-ADAP fusion protein (ADAP amino acids 570-690) (domain or fragment, human, UniProt O15117 570-690, looked up)
chain: DYDSLKLKKDSLGAPSRPIEDDQEVYDDVAEQDDISSHSQSGSGGIFPPPPDDDIYDGIEEEDADDGFPAPPKQLDMGDEVYDDVDTSDFPVSSAEMSQGTNVGKAKTEEKDLKKLKKQEK
modifications: phosphotyrosine (in vitro phosphorylation by Fyn kinase, approx. 90% of each phosphorylation site; sites in Table S1); BG-647 dye on the SNAP-tag
notes: adhesion and degranulation promoting adapter protein (ADAP), human, section 570-690; Cloned into the SNAP-tag vector pSET7-26b (NEB) via BamHI, XhoI; also called ADAP-P; phosphorylated ADAP; not shown: SNAP-tag, N-terminal, kept

Where no end group is shown, it is not given here.

Settings in all cases: one partner purified
Test [1] has as its target B5. Briefly: MST; SH2 proteins (only partly purified) serially diluted in 1x PBS with 1.75% (v/v) E. coli extract; fluorescent ADAP at 12 nM; 5 min at RT; Monolith NT.115.
The target in test [2] is T1, Src SH2 domain without biotin (for MST) (UniProt P12931 151-248).
T1 construct: Src, SH2 domain; same linear template as m6, cloned into pIX3.0; source: cell-free (RTS500 PM HY kit, plasmid pIX3.0), partly purified by buffer exchange to PBS and ultracentrifugation
As to the kind of experiment: MST; as for ADAP, with the fluorescent YEEI fusion and 0.05% Tween-20 (v/v) added to the interaction buffer; SH2 proteins (only partly purified) serially diluted.

Test [3] deals with T2, Rasa1b (Rasa1 sequence 174-447) without biotin (for MST) (UniProt P20936 174-447).
T2 construct: same linear template as m11, cloned into pIX3.0; source: cell-free (RTS500 PM HY kit, plasmid pIX3.0), partly purified by buffer exchange to PBS and ultracentrifugation
T2 sequence (looked up): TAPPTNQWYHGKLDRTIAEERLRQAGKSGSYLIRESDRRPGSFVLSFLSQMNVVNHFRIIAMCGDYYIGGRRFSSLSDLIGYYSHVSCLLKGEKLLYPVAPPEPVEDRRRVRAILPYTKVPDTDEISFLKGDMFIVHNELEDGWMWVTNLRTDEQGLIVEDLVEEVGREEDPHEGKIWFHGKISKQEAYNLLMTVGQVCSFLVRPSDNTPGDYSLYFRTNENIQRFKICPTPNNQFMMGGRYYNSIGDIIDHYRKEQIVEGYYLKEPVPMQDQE
Briefly: MST; SH2 proteins (only partly purified) serially diluted in 1x PBS with 1.75% (v/v) E. coli extract; fluorescent ADAP at 12 nM; 5 min at RT; Monolith NT.115.

Data on six molecules can be found in paper PMC3858276, “Completion of Proteomic Data Sets by Kd Measurement Using Cell-Free Synthesis of Site-Specifically Labeled Proteins” (PLoS ONE, 2013).

B1: Lck SH2 domain without biotin (for MST) (domain or fragment, UniProt P06239 127-224, looked up)
chain: WFFKNLSRKDAERQLLAPGNTHGSFLIRESESTAGSFSLSVRDFDQNQGEVVKHYKIRNLDNGGFYISPRITFPGLHELVRHYTNASDGLCTRLSRPC
notes: Lck, SH2 domain; same linear template as m8, cloned into pIX3.0; source: cell-free (RTS500 PM HY kit, plasmid pIX3.0), partly purified by buffer exchange to PBS and ultracentrifugation
In general, Kd refers to the constant that tells how readily two partners part at equilibrium. Low readings indicate tighter binding, high ones weaker binding. As for B1, the Kd in test [1] was ~1000 nM.

B2: phosphorylated SNAP-YEEI fusion (middle T antigen aa 315-331) (peptide)
chain: THQEEEEPQYEEIPIYL
modifications: not fully specified; also: tyrosine phosphorylation in vitro by Fyn, degree not placed
notes: Middle T antigen of Hamster Polyomavirus, aa 315-331 with the Y324EEI motif; also called phosphorylated YEEI; YEEI fusion construct; not shown: SNAP-tag, N-terminal, kept
With B2, the Kd in test [2] was ~515 nM.

B3: SH2D1A without biotin (for MST) (natural protein, UniProt O60880 1-128, looked up)
chain: MDAVAVYHGKISRETGEKLLLATGLDGSYLLRDSESVPGVYCLCVLYHGYIYTYRVSQTETGSWSAETAPGVHKRYFRKIKNLISAFQKPDQGIVIPLQYPVEKKSSARSTQGTTGIREDPDVCLKAP
notes: SH2D1A; same linear template as m7, cloned into pIX3.0; source: cell-free (RTS500 PM HY kit, plasmid pIX3.0), partly purified by buffer exchange to PBS and ultracentrifugation
As to B3, in test [1], the “fold weaker binding than the SH2 domains of Src, Lck and Fyn” value was 6 fold.

B4: RasaN (N-terminal SH2 domain of Rasa1) without biotin (for MST) (domain or fragment, UniProt P20936 181-272, looked up)
chain: WYHGKLDRTIAEERLRQAGKSGSYLIRESDRRPGSFVLSFLSQMNVVNHFRIIAMCGDYYIGGRRFSSLSDLIGYYSHVSCLLKGEKLLYPV
notes: Rasa1, isolated N-terminal SH2 domain; same linear template as m17, cloned into pIX3.0; source: cell-free (RTS500 PM HY kit, plasmid pIX3.0), partly purified by buffer exchange to PBS and ultracentrifugation
For B4, in test [1], the Kd is ~100 nM.

Regarding B5, the Kd in test [3] is ~100 nM.

B6: SLP-76 SH2 domain without biotin (for MST) (domain or fragment, UniProt Q13094 422-530, looked up)
chain: WYVSYITRPEAEAALRKINQDGTFLVRDSSKKTTTNPYVLMVLYKDKVYNIQIRYQKESQVYLLGTGLRGKEDFLSVSDIIDYFRKMPLLLIDGKNRGSRYQCTLTHAA
notes: SLP-76; same linear template as m10, cloned into pIX3.0; source: cell-free (RTS500 PM HY kit, plasmid pIX3.0), partly purified by buffer exchange to PBS and ultracentrifugation
In the case of B6, the Kd in test [1] is ~400 nM.
